Assay results from patent US9745556B2, “Variants of glycerol dehydrogenase having D-lactate dehydrogenase activity and uses thereof” (UNIVERSITY OF FLORIDA RESEARCH FOUNDATION, INC., priority 2011, dated 2017).

Key:
[1] = molecular target: Bacillus coagulans glycerol dehydrogenase (GlyDH/GDH), native, strain P4-102B, SEQ ID NO: 3 (Heyndrickxia coagulans, UniProt A0AAN0T381); type: biochemical; details: native enzyme
Experimental: (§1) Cultures were grown (LB-glucose medium in pH-controlled fermenters) to mid-exponential phase, harvested, and used for enzyme assays as previously described (23). Glycerol dehydrogenase from strain QZ19 was purified using differential ammonium sulfate precipitation followed by anion-exchange and hydrophobic interaction chromatography. GlyDH and GlyDH* were also purified as N-terminal His-tagged enzymes (33). GlyDH and LDH were assayed using standard methods (34, 35).
(§2) During the development of a D-lactate producing B. coagulans derivative (strain QZ19), a glycerol dehydrogenase (GDH) with two mutations (D121N and F245S) evolved to catalyze the reduction of pyruvate to D-lactate (Table 1 and FIG. 7). The first derivative that produced a significant D-lactate titer, strain QZ15, carried a single mutation that changed the amino acid phenylalanine at position 245 to serine. As strain QZ15 was further selected for higher lactate productivity, the GDH protein acquired a second mutation in amino acid position 121 (D121N) (FIG. 15). […] In order to evaluate the role of each of these two mutations in the catalysis of pyruvate reduction to D-lactate, GDH/LDH enzyme with either of the two substitutions (D121N or F245S) and the protein with both changes were expressed in E. coli, purified, and their biochemical properties were determined.

[2] = molecular target: T1, Bacillus coagulans glycerol dehydrogenase (GlyDH/GDH, native SEQ ID NO: 3) variant D121N (Heyndrickxia coagulans, UniProt A0AAN0T381, D121N); assay: Kinetic properties of mutated glycerol dehydrogenase D121N; type: biochemical; details: D121N alone; compared to native enzyme; in words
T1 sequence (A0AAN0T381 1-367 D121N): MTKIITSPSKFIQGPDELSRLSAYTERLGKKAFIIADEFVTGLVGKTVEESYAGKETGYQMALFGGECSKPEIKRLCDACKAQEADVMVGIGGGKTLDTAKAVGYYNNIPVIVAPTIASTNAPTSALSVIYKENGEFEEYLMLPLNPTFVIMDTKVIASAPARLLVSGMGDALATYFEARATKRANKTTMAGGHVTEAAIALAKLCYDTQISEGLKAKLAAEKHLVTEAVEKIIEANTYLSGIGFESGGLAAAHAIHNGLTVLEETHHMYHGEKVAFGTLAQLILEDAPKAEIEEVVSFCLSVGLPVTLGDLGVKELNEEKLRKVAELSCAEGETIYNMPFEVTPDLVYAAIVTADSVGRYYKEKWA
Experimental: as §1
(§3) During the development of a D-lactate producing B. coagulans derivative (strain QZ19), a glycerol dehydrogenase (GDH) with two mutations (D121N and F245S) evolved to catalyze the reduction of pyruvate to D-lactate (Table 1 and FIG. 7). The first derivative that produced a significant D-lactate titer, strain QZ15, carried a single mutation that changed the amino acid phenylalanine at position 245 to serine. As strain QZ15 was further selected for higher lactate productivity, the GDH protein acquired a second mutation in amino acid position 121 (D121N) (FIG. 15). Combination of these two mutations led strain QZ19 to produce D-lactic acid at a titer close to 100 g/L in 48 hours at pH 5.0 and 50° C. in pH-controlled fermentations. In order to evaluate the role of each of these two mutations in the catalysis of pyruvate reduction to D-lactate, GDH/LDH enzyme with either of the two substitutions (D121N or F245S) and the protein with both changes were expressed in E. coli, purified, and their biochemical properties were determined.

CC(=O)C(=O)O [3] = assay: as above; type: biochemical, Bacillus coagulans; details: other: D121N, 55° C., pH 5.0
Experimental: as §1, §3

C[C@@H](O)C(=O)O = assay: as above; type: biochemical, Bacillus coagulans; details: other: D121N, 55° C., pH 5.0
Experimental: as §1, §3

OCC(O)CO [4] = assay: as above; type: biochemical, Bacillus coagulans; details: other: D121N, 55° C., pH 5.0
Experimental: as §1, §3

CC(=O)C(=O)O [5] = assay: Kinetic properties of mutated glycerol dehydrogenase F245S; type: biochemical, Bacillus coagulans; details: other: F245S, 55° C., pH 5.0
Experimental: as §1, §3

OCC(O)CO [6] = assay: as above; type: biochemical, Bacillus coagulans; details: other: F245S, 55° C., glycerol oxidation, pyruvate reduction or lactate oxidation, pH 5.0
Experimental: as §1, §3

[7] = substrate: CC(=O)C(=O)O; assay: purified protein, by the assay type; details: other: enzyme with both changes; pH 5.0; 50.0 °C
[8] = substrate: OCC(O)CO; assay: purified protein, by the assay type; details: other: column head, D121N; 55° C.; pH 5.0; 55.0 °C
[9] = substrate: OCC(O)CO; assay: purified protein, by the assay type; type: biochemical, Bacillus coagulans; details: other: Native, 55° C., glycerol oxidation, pyruvate reduction or lactate oxidation, pH 5.0
Experimental: as §1, §2

[10] = substrate: NC(=O)C1=CN([C@@H]2O[C@H](COP(=O)(O)OP(=O)(O)OC[C@H]3O[C@@H](n4cnc5c(N)ncnc54)[C@H](O)[C@@H]3O)[C@@H](O)[C@H]2O)C=CC1; assay: purified protein, by the assay type; details: other: Native, 55° C., glycerol oxidation, pyruvate reduction or lactate oxidation, pH 5.0

## OCC(O)CO [Glycerol]
[1]
  efficiency at oxidizing glycerol with NAD^+ relative to reducing pyruvate using NADH: about 1,000 times
[2]
  change in apparent Km for glycerol: slight increase

## Bacillus coagulans glycerol dehydrogenase (GlyDH/GDH, native SEQ ID NO: 3) variant D121N (Heyndrickxia coagulans; D121N)
CC(=O)C(=O)O [3]
  kcat: 2.0 s⁻¹
  kcat/Km: 3 M⁻¹ s⁻¹
C[C@@H](O)C(=O)O
  kcat: 1.9 s⁻¹
  kcat/Km: 8 M⁻¹ s⁻¹
OCC(O)CO [4]
  kcat: 13.2 s⁻¹
  kcat/Km: 100 M⁻¹ s⁻¹

## Bacillus coagulans glycerol dehydrogenase (GlyDH/GDH, native SEQ ID NO: 3) variant F245S (Heyndrickxia coagulans; F245S)
CC(=O)C(=O)O [5]
  kcat: 19.5 s⁻¹
  kcat/Km: 80 M⁻¹ s⁻¹
OCC(O)CO [6]
  kcat: 62.5 s⁻¹
  kcat/Km: 800 M⁻¹ s⁻¹

B1: Bacillus coagulans glycerol dehydrogenase (GlyDH/GDH, native SEQ ID NO: 3) variant F245S, D121N (GlyDH*, strain QZ19, SEQ ID NO: 1) (Heyndrickxia coagulans; … (protein)
chain: MTKIITSPSKFIQGPDELSRLSAYTERLGKKAFIIADDFVTGLVGKTVEESYAGKETGYQMALFGGECSKPEIERLCEMSKSEEADVVVGIGGGKTLDTAKAVGYYNNIPVIVAPTIASTNAPTSALSVIYKENGEFEEYLMLPLNPTFVIMDTKVIASAPARLLVSGMGDALATYFEARATKRANKTTMAGGRVTEAAIALAKLCYDTQILEGLKAKLAAEKHLVTEAVEKIIEANTYLSGIGSESGGLAAAHAIHNGLTVLEETHHMYHGEKVAFGTLAQLILEDAPKAEIEEVVSFCLSVGLPVTLGDLGVKELNEEKLRKVAELSCAEGETIYNMPFEVTPDLVYAAIVTADSVGRYYKEKWA
[7]
  Km: 51000 µM
[8]
  kcat: 16.7 s⁻¹
  kcat/Km: 100 M⁻¹ s⁻¹

B2: Bacillus coagulans glycerol dehydrogenase (GlyDH/GDH), native, strain P4-102B, SEQ ID NO: 3 (Heyndrickxia coagulans) (protein)
chain: MTKIITSPSKFIQGPDELSRLSAYTERLGKKAFIIADDFVTGLVGKTVEESYAGKETGYQMALFGGECSKPEIERLCEMSKSEEADVVVGIGGGKTLDTAKAVGYYNNIPVIVAPTIASTDAPTSALSVIYKENGEFEEYLMLPLNPTFVIMDTKVIASAPARLLVSGMGDALATYFEARATKRANKTTMAGGRVTEAAIALAKLCYDTQILEGLKAKLAAEKHLVTEAVEKIIEANTYLSGIGFESGGLAAAHAIHNGLTVLEETHHMYHGEKVAFGTLAQLILEDAPKAEIEEVVSFCLSVGLPVTLGDLGVKELNEEKLRKVAELSCAEGETIYNMPFEVTPDLVYAAIVTADSVGRYYKEKWA
[9]
  kcat: 28.0 s⁻¹
  kcat/Km: 2400 M⁻¹ s⁻¹
[10]
  Km: 400 µM
